Measurements published in patent publication US20250388669A1 (published 2025).

T1: B7H3 (human, UniProt Q5ZPR3 29-466, limits assumed)
T1 sequence (looked up): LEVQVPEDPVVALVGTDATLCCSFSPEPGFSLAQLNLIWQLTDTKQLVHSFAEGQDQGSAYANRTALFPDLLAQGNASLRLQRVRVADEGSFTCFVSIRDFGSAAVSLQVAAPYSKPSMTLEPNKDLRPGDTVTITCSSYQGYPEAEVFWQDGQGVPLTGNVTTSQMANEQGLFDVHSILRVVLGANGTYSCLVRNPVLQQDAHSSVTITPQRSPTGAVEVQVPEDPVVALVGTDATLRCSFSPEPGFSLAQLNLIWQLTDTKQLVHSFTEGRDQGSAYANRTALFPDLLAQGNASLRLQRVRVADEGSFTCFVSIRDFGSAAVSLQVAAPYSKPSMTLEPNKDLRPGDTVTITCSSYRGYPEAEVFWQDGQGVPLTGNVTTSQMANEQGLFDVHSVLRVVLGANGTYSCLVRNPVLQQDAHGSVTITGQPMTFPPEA

T2: B7H3 (UniProt Q5ZPR3 29-466, limits assumed)
T2 sequence (looked up): T1 sequence (looked up)

B1: Ly1967 (other)
chain 1: QVQLQQSGAELVRPGSSVKISCKASGYAFSSYWMNWVKQRPGQGLEWIGQIWPGDGDTNYNGKFKGKATLTADESSSTAYMQLSSLASEDSAVYFCARRETTTVGRYYYAMDYWGQGTTVTVSSASTKGPSVFPLAPSSKSTSGGTAALGCLVKDYFPEPVTVSWNSGALTSGVHTFPAVLQSSGLYSLSSVVTVPSSSLGTQTYICNVNHKPSNTKVDKKVEPKSCGGGGSGGGGSGGGGSGGGGSEVQLVESGGGLVQPGGSLRLSCAASGFTFSTYAMNWVRQAPGKGLEWVGRIRSKYNNYATYYADSVKGRFTISRDDSKNSLYLQMNSLKTEDTAVYYCVRHGNFGNSYVSWFAYWGQGTLVTVSSGGGGSDKTHTCPPCPAPEAAGPSVFLFPPKPKDTLMISRTPEVTCVVVDVSHEDPEVKFNWYVDGVEVHNAKTKPREEQYNSTYRVVSVLTVLHQDWLNGKEYKCKVSNKALPAPIEKTISKAKGQPREPQVYTLPPSREEMTKNQVSLWCLVKGFYPSDIAVEWESNGQPENNYKTTPPVLDSDGSFFLYSKLTVDKSRWQQGNVFSCSVMHEALHNHYTQKSLSLSPGGGGGSGGGGSGGGGSGGGGSQVQLVQSGAEVKKPGASVKVSCKASGYTFAGFEMHWVRQAPGQGLEWMGAIDPKTGGTDYNQKFKDRVTMTRDTSISTAYMELSRLRSDDTAVYYCARDLGYFDVWGQGTLVTVSS
chain 2: QVQLQQSGAELVRPGSSVKISCKASGYAFSSYWMNWVKQRPGQGLEWIGQIWPGDGDTNYNGKFKGKATLTADESSSTAYMQLSSLASEDSAVYFCARRETTTVGRYYYAMDYWGQGTTVTVSSASTKGPSVFPLAPSSKSTSGGTAALGCLVKDYFPEPVTVSWNSGALTSGVHTFPAVLQSSGLYSLSSVVTVPSSSLGTQTYICNVNHKPSNTKVDKKVEPKSCGGGGSGGGGSGGGGSGGGGSQAVVTQEPSLTVSPGGTVTLTCRSSTGAVTTSNYANWVQQKPGQAPRGLIGGTNKRAPWTPARFSGSLLGGKAALTITGAQAEDEADYYCALWYSNLWVFGGGTKLTVLGGGGSDKTHTCPPCPAPEAAGPSVFLFPPKPKDTLMISRTPEVTCVVVDVSHEDPEVKFNWYVDGVEVHNAKTKPREEQYNSTYRVVSVLTVLHQDWLNGKEYKCKVSNKALPAPIEKTISKAKGQPREPQVYTLPPSREEMTKNQVSLSCAVKGFYPSDIAVEWESNGQPENNYKTTPPVLDSDGSFFLVSKLTVDKSRWQQGNVFSCSVMHEALHNHYTQKSLSLSPGGGGGSGGGGSGGGGSGGGGSDIQMTQSPSSLSASVGDRVTITCRASQDIRSNLNWYQQKPGGAVKLLIYYTSRLHSGVPSRFSGSGSGTDYTLTISSLQPEDFATYFCQQSEKLPRTFGGGTKVEIR
light: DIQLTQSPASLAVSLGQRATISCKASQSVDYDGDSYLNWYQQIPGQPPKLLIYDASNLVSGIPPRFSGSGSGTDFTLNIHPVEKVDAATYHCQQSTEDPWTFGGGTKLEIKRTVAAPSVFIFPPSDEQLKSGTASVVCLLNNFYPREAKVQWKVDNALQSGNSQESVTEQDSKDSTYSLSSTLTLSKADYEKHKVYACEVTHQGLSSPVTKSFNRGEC
notes: Tri-specific antibody: CD19 Fabs, central CD3 Fv, terminal CD137 Fv
B2: Ly1963 (other)
chain 1: QVQLVQSGAEVKKPGASVKVSCKASGYTFTSYVMHWVRQKPGQGLEWIGYINPYNEGTESTDKFKGRATMTSDKSTSTVYMELSSLRSEDTAVYYCASIYYGYEGTYFGVWGQGTLVTVSSASTKGPSVFPLAPSSKSTSGGTAALGCLVKDYFPEPVTVSWNSGALTSGVHTFPAVLQSSGLYSLSSVVTVPSSSLGTQTYICNVNHKPSNTKVDKKVEPKSCGGGGSGGGGSGGGGSGGGGSEVQLVESGGGLVQPGGSLRLSCAASGFTFSTYAMNWVRQAPGKGLEWVGRIRSKYNNYATYYADSVKGRFTISRDDSKNSLYLQMNSLKTEDTAVYYCVRHGNFGNSYVSWFAYWGQGTLVTVSSGGGGSDKTHTCPPCPAPEAAGPSVFLFPPKPKDTLMISRTPEVTCVVVDVSHEDPEVKFNWYVDGVEVHNAKTKPREEQYNSTYRVVSVLTVLHQDWLNGKEYKCKVSNKALPAPIEKTISKAKGQPREPQVYTLPPSREEMTKNQVSLWCLVKGFYPSDIAVEWESNGQPENNYKTTPPVLDSDGSFFLYSKLTVDKSRWQQGNVFSCSVMHEALHNHYTQKSLSLSPGGGGGSGGGGSGGGGSGGGGSQVQLVQSGAEVKKPGASVKVSCKASGYTFAGFEMHWVRQAPGQGLEWMGAIDPKTGGTDYNQKFKDRVTMTRDTSISTAYMELSRLRSDDTAVYYCARDLGYFDVWGQGTLVTVSS
chain 2: QVQLVQSGAEVKKPGASVKVSCKASGYTFTSYVMHWVRQKPGQGLEWIGYINPYNEGTESTDKFKGRATMTSDKSTSTVYMELSSLRSEDTAVYYCASIYYGYEGTYFGVWGQGTLVTVSSASTKGPSVFPLAPSSKSTSGGTAALGCLVKDYFPEPVTVSWNSGALTSGVHTFPAVLQSSGLYSLSSVVTVPSSSLGTQTYICNVNHKPSNTKVDKKVEPKSCGGGGSGGGGSGGGGSGGGGSQAVVTQEPSLTVSPGGTVTLTCRSSTGAVTTSNYANWVQQKPGQAPRGLIGGTNKRAPWTPARFSGSLLGGKAALTITGAQAEDEADYYCALWYSNLWVFGGGTKLTVLGGGGSDKTHTCPPCPAPEAAGPSVFLFPPKPKDTLMISRTPEVTCVVVDVSHEDPEVKFNWYVDGVEVHNAKTKPREEQYNSTYRVVSVLTVLHQDWLNGKEYKCKVSNKALPAPIEKTISKAKGQPREPQVYTLPPSREEMTKNQVSLSCAVKGFYPSDIAVEWESNGQPENNYKTTPPVLDSDGSFFLVSKLTVDKSRWQQGNVFSCSVMHEALHNHYTQKSLSLSPGGGGGSGGGGSGGGGSGGGGSDIQMTQSPSSLSASVGDRVTITCRASQDIRSNLNWYQQKPGGAVKLLIYYTSRLHSGVPSRFSGSGSGTDYTLTISSLQPEDFATYFCQQSEKLPRTFGGGTKVEIR
light: EIVLTQSPATLSLSPGERATLSCRASSSVSYMHWYQQKPGQAPRPWIYATSNLASGIPARFSGSRSGTDYTLTISSLEPEDFAVYYCQQWSSNTLTFGGGTKVEIKRTVAAPSVFIFPPSDEQLKSGTASVVCLLNNFYPREAKVQWKVDNALQSGNSQESVTEQDSKDSTYSLSSTLTLSKADYEKHKVYACEVTHQGLSSPVTKSFNRGEC
notes: Tri-specific antibody: B7H3 Fabs, central CD3 Fv, terminal CD137 Fv; Flexible linker is (G4S)4
B3: Ly2279 (bispecific antibody)
heavy 1: not shown
heavy 2: QVQLVQSGAEVKKPGASVKVSCKASGYTFTSYVMHWVRQKPGQGLEWIGYINPYNEGTESTDKFKGRATMTSDKSTSTVYMELSSLRSEDTAVYYCASIYYGYEGTYFGVWGQGTLVTVSSASTKGPSVFPLAPSSKSTSGGTAALGCLVKDYFPEPVTVSWNSGALTSGVHTFPAVLQSSGLYSLSSVVTVPSSSLGTQTYICNVNHKPSNTKVDKKVEPKSCGGGGSGGGGSGGGGSGGGGSDIQMTQSPSSVSASVGDRVTITCRASQGIYSWLAWYQQKPGKAPNLLIYTASTLQSGVPSRFSGSGSGTDFTLTISSLQPEDFATYYCQQANIFPLTFGGGTKVEIKGGGGSDKTHTCPPCPAPEAAGPSVFLFPPKPKDTLMISRTPEVTCVVVDVSHEDPEVKFNWYVDGVEVHNAKTKPREEQYNSTYRVVSVLTVLHQDWLNGKEYKCKVSNKALPAPIEKTISKAKGQPREPQVYTLPPSREEMTKNQVSLSCAVKGFYPSDIAVEWESNGQPENNYKTTPPVLDSDGSFFLVSKLTVDKSRWQQGNVFSCSVMHEALHNRFTQKSLSLSPG
light: B2 light
notes: B7H3 Fabs x central CD40 Fv (TM383)
B4: Ly2424 (bispecific antibody, human IgG1, kappa)
heavy 1: not shown
heavy 2: QVQLVQSGAEVKKPGASVKVSCKASGYTFTSYVMHWVRQKPGQGLEWIGYINPYNEGTESTDKFKGRATMTSDKSTSTVYMELSSLRSEDTAVYYCASIYYGYEGTYFGVWGQGTLVTVSSASTKGPSVFPLAPSSKSTSGGTAALGCLVKDYFPEPVTVSWNSGALTSGVHTFPAVLQSSGLYSLSSVVTVPSSSLGTQTYICNVNHKPSNTKVDKKVEPKSCDKTHTCPPCPAPEAAGPSVFLFPPKPKDTLMISRTPEVTCVVVDVSHEDPEVKFNWYVDGVEVHNAKTKPREEQYNSTYRVVSVLTVLHQDWLNGKEYKCKVSNKALPAPIEKTISKAKGQPREPQVYTLPPSREEMTKNQVSLSCAVKGFYPSDIAVEWESNGQPENNYKTTPPVLDSDGSFFLVSKLTVDKSRWQQGNVFSCSVMHEALHNRFTQKSLSLSPGGGGGSGGGGSGGGGSGGGGSDIQMTQSPSSVSASVGDRVTITCRASQGIYSWLAWYQQKPGKAPNLLIYTASTLQSGVPSRFSGSGSGTDFTLTISSLQPEDFATYYCQQANIFPLTFGGGTKVEIK
light: B2 light
notes: B7H3 Fabs x terminal CD40 Fv (TM383)
B5: TM559 (antibody, V domains shown)
VH: EVQLVESGGGLVQPGGSLRLSCAASGFTFTNYGLHWVRQAPGKGLEWVSSISPSGGVTYYRDSVKGRFTISRDNSKNTLYLQMNSLRAEDTAVYYCAKPFLGWGGANWIAHWGQGTLVTVSS
VL: DIQMTQSPSSLSASVGDRVTITCLASEDISNDLAWYQQKPGKAPKLLIYFVDRLLDGVPSRFSGSGSGTDFTLTISSLQPEDFATYYCQQSYKYPPTFGQGTKLEIK
notes: Parent mAb; also called Anti-CD40 TM559

Tests used:
CD3 = CD3 (human); experiment: CD3 binding, as described in Example 2 (ELISA or FCM)
CD3 (human), sequence (chain, as listed by the source): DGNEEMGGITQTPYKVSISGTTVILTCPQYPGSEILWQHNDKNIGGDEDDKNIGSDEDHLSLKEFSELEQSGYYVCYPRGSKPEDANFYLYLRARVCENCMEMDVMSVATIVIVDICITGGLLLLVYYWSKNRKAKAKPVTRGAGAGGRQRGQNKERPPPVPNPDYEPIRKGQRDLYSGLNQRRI

CD137 = target: T3, CD137 (human, UniProt Q07011 24-186); experiment: CD137 binding, FCM or ELISA
T3 construct: In the reporter assay it is whole, on GS-H2-huCD137 cells; also called 4-1BB; huCD137

B7H3 [1] = target: T1, B7H3; experiment: ELISA or FCM (Example 2)
B7H3 [2] = target: T2, B7H3; experiment: FCM or ELISA, graded
CD40 = CD40 (UniProt P25942 21-193, limits assumed); experiment: FCM or ELISA, graded
CD40, sequence (P25942 21-193 limits assumed): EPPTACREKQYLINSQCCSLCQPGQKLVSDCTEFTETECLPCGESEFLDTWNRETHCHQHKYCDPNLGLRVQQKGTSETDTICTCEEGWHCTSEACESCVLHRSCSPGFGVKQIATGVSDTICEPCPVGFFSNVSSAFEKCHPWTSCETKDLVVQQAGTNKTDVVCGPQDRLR

Binder | EC50 (CD3) | binding result (CD137) | binding result (B7H3 [1]) | binding result (B7H3 [2]) | binding result (CD40)
B1 | 1.56 µg/mL | binds | – | – | –
B2 | 0.74 µg/mL | binds | binds | – | –
B3 | – | – | – | binds | –
B4 | – | – | – | binds | binds
B5 | – | – | – | – | binds
